Results published in paper PMC12457548, “Comparative Characterization of Plasmodium falciparum Small Heat Shock Proteins and Their Inhibition by Quercetin (3,3′,4′,5,7-Pentahydroxyflavone)” (The Protein Journal, 2025).

Tests used:
PfHsp20b = target: T1, PfHsp20b (Plasmodium falciparum, UniProt Q8IB02); experiment: inhibition of chaperone activity (suppression of heat-induced MDH/CS aggregation); CD, DSF and DLS shifts also measured; format: biochemical
T1 construct: gene PF3D7_0816500; full-length, residues 1–173, N-terminal 6xHis
T1 sequence (Q8IB02 1-172): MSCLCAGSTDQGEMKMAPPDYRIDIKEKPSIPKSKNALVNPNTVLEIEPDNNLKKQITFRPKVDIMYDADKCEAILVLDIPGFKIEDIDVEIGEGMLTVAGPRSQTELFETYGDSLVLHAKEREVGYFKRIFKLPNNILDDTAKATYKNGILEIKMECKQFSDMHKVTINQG

PfHsp20c = target: T2, PfHsp20c (Plasmodium falciparum, UniProt Q8I5T9); experiment: as above; format: biochemical
T2 construct: gene PF3D7_1211100; full-length, residues 1–231, N-terminal 6xHis

PfHsp20a = target: T3, PfHsp20a (Plasmodium falciparum, UniProt Q8IES0); experiment: as above; format: biochemical
T3 construct: gene PF3D7_1304500; full-length, residues 1–211, N-terminal 6xHis

[1] = target: the molecule itself; experiment: dynamic light scattering; as a1 but in the presence of 3 uM quercetin; 20 mM Tris pH 7.4, 300 mM NaCl, 25 °C; oligomer size estimated from the hydrodynamic radius
[2] = target: the molecule itself; experiment: dynamic light scattering; 0-6 uM protein alone in 20 mM Tris pH 7.4, 300 mM NaCl, 25 °C; oligomer size estimated from the average hydrodynamic radius with the fluidic webserver

**Q.** With `O=c1c(O)c(-c2ccc(O)c(O)c2)oc2cc(O)cc(O)c12` [quercetin, 3,3′,4′,5,7-pentahydroxyflavone] as the molecule, how does the IC50 (PfHsp20b) read?
**A.** The IC50 was 0.55 ± 0.1 µM.

**Q.** And the IC50 (PfHsp20c)?
**A.** Its IC50 is 0.11 ± 0.07 µM.

**Q.** And the IC50 (PfHsp20a)?
**A.** The IC50 was 0.32 ± 0.11 µM.

B1: PfHsp20c (natural protein, Plasmodium falciparum, UniProt Q8I5T9 1-231, looked up)
chain: MSTTNILKPKIIIESSKEQGVGEKRSSTLSAPFEKNMFSTYSYSNPISNMRSSTHNEYKYNWTKYVNSSQIPHVDEYIKTFEGPNTTYYYETIPLKTNTNNIFEITPSQEELSRISYNPKIEIYSTCDFAVLMMDIPGVSKENLKVELEKGLLKVYGNKYKPHIEELEKRNEYHTKIIERLNEYYFCKIFQMPPAFSEGQNISCKLNNGELLVKILANELKTQKKVIDIQS
notes: Codon-harmonised synthetic gene in pQE30 between BamHI and HindIII; forms large oligomers in solution by DLS; also called PF3D7_1211100; P. falciparum Hsp20; source: E. coli XL1 Blue, purified (IMAC)
**Q.** With B1 as the molecule, how does the “stoichiometry N” value [1] read?
**A.** Its value is 35.

B2: PfHsp20a (natural protein, Plasmodium falciparum, UniProt Q8IES0 1-211, looked up)
chain: MSENNLSKDNNKNKRNEALENAGMLDTFFESMYDHMNRLDQYHSDMNRMMNSLRGYYMNNDFFRFFPNRRSLTDYDINRNRNHDLLLSKPFSSMFRRDGYSNVPAMDVLDKEKHLEIKMDVPGLNKEDVQINLDDGKLEISGEFKKSHEQKDEQQRYYIKERCESSFYRSFTLPENVSEDEIKATFKDGVLKIDIPKKDIPDKKKKKIEID
notes: Codon-harmonised synthetic gene in pQE30 between BamHI and HindIII; forms large oligomers in solution by DLS; also called PF3D7_1304500; P. falciparum Hsp20; source: E. coli XL1 Blue, purified (IMAC)
**Q.** How did the “stoichiometry N” value [1] turn out when B2 was run?
**A.** Its value is 40.

B3: PfHsp20b (natural protein, Plasmodium falciparum, UniProt Q8IB02 1-172, looked up)
chain: T1 sequence (Q8IB02 1-172)
notes: Codon-harmonised synthetic gene in pQE30 between BamHI and HindIII; forms oligomers in solution by DLS; also called PF3D7_0816500; P. falciparum Hsp20; source: E. coli XL1 Blue, purified (IMAC)
**Q.** How did the “stoichiometry N” value [1] turn out when B3 was run?
**A.** The value was 37.

**Q.** And the “stoichiometry N” value [2]?
**A.** The value was roughly 38.
